Experimental data published in publication PMC3858276.

Target: both RasaN and SLP-76
Assay: supernatant depletion assay (pull-down titration); biotinylated SH2 domains on streptavidin-coated DynaBeads, washed once and serially diluted in 1x PBS; ADAP at 8 nM (PBS with 0.1% E. coli extract), 10 min at RT; unbound ADAP in the supernatant read by in-gel fluorescence; Kd estimated from the plot

B1: phosphorylated SNAP-ADAP fusion protein (ADAP amino acids 570-690) (domain or fragment)
chain: DYDSLKLKKDSLGAPSRPIEDDQEVYDDVAEQDDISSHSQSGSGGIFPPPPDDDIYDGIEEEDADDGFPAPPKQLDMGDEVYDDVDTSDFPVSSAEMSQGTNVGKAKTEEKDLKKLKKQEK
modifications: phosphotyrosine (in vitro phosphorylation by Fyn kinase, approx. 90% of each phosphorylation site; sites in Table S1); BG-647 dye on the SNAP-tag
Kd: 60 to 90 nM
